Values of other authors as cited in PMC7035337.

Target: vimentin (Homo sapiens) (UniProt P08670)
Sequence (P08670 2-466): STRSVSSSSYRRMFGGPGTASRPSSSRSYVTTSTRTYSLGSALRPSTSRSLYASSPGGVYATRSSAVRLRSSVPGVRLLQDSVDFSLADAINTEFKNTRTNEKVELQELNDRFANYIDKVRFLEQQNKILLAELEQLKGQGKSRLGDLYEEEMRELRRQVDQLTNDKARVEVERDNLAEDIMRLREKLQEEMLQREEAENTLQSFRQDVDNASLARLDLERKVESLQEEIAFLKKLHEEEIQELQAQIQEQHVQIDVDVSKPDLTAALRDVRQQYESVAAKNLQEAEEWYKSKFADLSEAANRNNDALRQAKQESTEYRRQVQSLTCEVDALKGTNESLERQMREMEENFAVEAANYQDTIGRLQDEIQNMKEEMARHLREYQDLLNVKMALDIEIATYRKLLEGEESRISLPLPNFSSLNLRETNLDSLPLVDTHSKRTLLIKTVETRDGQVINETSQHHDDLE

envoplakin PRD, sequence (Q92817 1822-2014): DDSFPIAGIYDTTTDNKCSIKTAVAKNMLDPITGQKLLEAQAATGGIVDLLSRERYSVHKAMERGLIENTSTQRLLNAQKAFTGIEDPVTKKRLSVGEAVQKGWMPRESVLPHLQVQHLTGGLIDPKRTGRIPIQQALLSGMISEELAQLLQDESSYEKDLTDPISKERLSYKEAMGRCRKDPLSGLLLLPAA

## envoplakin PRD (from UniProt Q92817)
  Kd: 19.1 µM
